The results in this text go back to article PMC4786692.

Usually EC50 stands for the concentration giving half of the maximal effect. Lower therefore signals greater potency. In general, IC50 refers to the concentration at which inhibition is half-maximal. Low readings indicate greater potency in that assay, high ones weaker potency in that assay. One may read the Kd as the concentration at which binding is half-saturated. High values mean lower affinity, low ones higher affinity. As usually defined, the koff is the rate constant with which the complex falls apart. By kon is commonly meant a measure of how fast the partners come together. Read a low kon as slow association. What is called stoichiometry N is the number of molecules, sites or subunits per partner or assembly.

The target of one assay is Murine VEGF-A164 (mouse). The assay can be described thus: MSD (meso scale discovery) plate binding assay; VEGF ligand coated at 2 μg/ml on MSD high bind plate; anti-VEGF molecule added in 0.1% BSA/PBS, 2 h room temperature; detection with sulfo-TAG anti-human IgG (Fc-specific); n = 3.
In assay [1] the target is Human VEGF_(1–165) (human). The assay is described as above.
A further assay has as its target Human VEGF-A121 (human). The description is as above.
Assay [2] deals with VEGF-165 (R&D Systems) (human). In words: MSD receptor binding inhibition assay; VEGFR1 coated at […]; anti-VEGF molecule added 10 min before VEGF-165 (10 ng/ml final); 2 h room temperature; bound VEGF detected with biotinylated anti-VEGF and streptavidin sulfo-TAG.
Assay [3] has as its target VEGF-165 (R&D Systems) (human). In words: MSD receptor binding inhibition assay; VEGFR2 coated at […]; anti-VEGF molecule added 10 min before VEGF-165 (10 ng/ml final); 2 h room temperature; bound VEGF detected with biotinylated anti-VEGF and streptavidin sulfo-TAG.
The target in assay [4] is VEGF dual dAb (human). The assay can be described thus: SPR; ProteOn GLM chip; VEGF dual dAb alone or in complex with VEGF-165 immobilised by amine coupling; FcRn injected at 3.9-1000 nM; 25 °C, HBS-EP pH 6; equilibrium model. In general terms: In SPR one partner is held on a chip, and binding of the other changes the refractive index at the surface.
In assay [5] the target is VEGF dual dAb in complex with human VEGF-165 (human). Described as above.
Assay [6] has as its target VEGF dual dAb (human). The assay can be described thus: SPR; Biacore T200, C1 chip; VEGF dual dAb captured on immobilised protein A (20 RU); VEGF injected at 0.03-32 nM (32 nM curves removed), 60 μl/min; 37 °C, HBS-EP; 1:1 model; triplicate.
Assay [7] has as its target Human VEGF_(1–165) (human). In words: SEC-MALS; input proteins and complexes at input molar ratios 1:2, 2:1, 4:1 (dual dAb-VEGF) and 1:1, 1:2, 2:1, 4:1 (bevacizumab-VEGF); Superdex 200 column; PBS pH 7.4. For orientation: SEC sorts molecules by how far they enter the pores of the column.

Chain of VEGF dual dAb (human) (heavy, as listed by the source, chain 1 of 2): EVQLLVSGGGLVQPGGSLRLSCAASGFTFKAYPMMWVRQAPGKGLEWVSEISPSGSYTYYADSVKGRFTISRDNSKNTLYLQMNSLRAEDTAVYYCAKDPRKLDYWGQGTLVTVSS
Chain of VEGF dual dAb (human) (light, as listed by the source, chain 2 of 2): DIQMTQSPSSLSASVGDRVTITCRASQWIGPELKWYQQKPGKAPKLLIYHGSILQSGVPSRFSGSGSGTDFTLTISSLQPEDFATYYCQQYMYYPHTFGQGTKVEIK
Chain of Aflibercept (Fc fusion) (chain): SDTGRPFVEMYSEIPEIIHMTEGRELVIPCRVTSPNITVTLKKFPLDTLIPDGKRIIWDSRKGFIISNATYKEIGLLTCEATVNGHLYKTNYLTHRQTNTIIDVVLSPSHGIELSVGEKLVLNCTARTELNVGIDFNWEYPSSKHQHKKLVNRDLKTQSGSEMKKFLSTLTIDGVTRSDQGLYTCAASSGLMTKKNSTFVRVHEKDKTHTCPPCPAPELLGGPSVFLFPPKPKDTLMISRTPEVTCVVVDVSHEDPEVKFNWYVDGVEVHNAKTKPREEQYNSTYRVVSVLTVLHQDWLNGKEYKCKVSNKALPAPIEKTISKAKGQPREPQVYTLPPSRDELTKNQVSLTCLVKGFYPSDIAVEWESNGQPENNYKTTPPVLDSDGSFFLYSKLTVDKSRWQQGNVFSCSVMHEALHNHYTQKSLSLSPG
Chain of Human FcRn (P55899 24-365): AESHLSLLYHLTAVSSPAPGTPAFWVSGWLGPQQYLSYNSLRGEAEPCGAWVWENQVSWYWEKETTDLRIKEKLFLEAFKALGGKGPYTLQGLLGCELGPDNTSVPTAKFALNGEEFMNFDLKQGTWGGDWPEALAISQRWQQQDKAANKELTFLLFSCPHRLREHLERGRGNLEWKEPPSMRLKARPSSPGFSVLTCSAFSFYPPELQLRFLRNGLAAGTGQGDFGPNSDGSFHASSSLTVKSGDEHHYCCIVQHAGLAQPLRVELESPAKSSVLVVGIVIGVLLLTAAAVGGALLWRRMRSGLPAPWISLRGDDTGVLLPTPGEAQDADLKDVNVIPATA
Chain of Human FcRn (P61769 21-119): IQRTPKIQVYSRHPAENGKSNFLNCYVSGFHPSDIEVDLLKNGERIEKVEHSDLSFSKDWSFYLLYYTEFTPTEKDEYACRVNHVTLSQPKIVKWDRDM
Chain of VEGF dual dAb in complex with human VEGF-165 (human) (heavy, as listed by the source, chain 1 of 2): as the sequence (heavy, as listed by the source, chain 1 of 2) above
Chain of VEGF dual dAb in complex with human VEGF-165 (human) (light, as listed by the source, chain 2 of 2): as the sequence (light, as listed by the source, chain 2 of 2) above

Consider Aflibercept (Fc fusion), for which the EC50 with Murine VEGF-A164 (mouse) amounted to 0.095 nM; in assay [1], 0.086 nM; with Human VEGF-A121 (human), 0.317 nM. Also, the IC50 in [2] amounted to 0.075 nM; in [3], 0.032 nM.

“Human FcRn (from UniProt P55899 24-365; P61769 21-119) (receptor)”: the figures for the Kd (in the assay with VEGF dual dAb (human) [4]; in assay [5]) were 325 nM and 479 nM, respectively.

Consider “Human VEGF-A165, E. coli expressed (ligand)”, for which, in the assay with VEGF dual dAb (human) [6], the Kd was found to be 0.00994 nM, the koff was 8.08e-05 s⁻¹ and the kon came to 8.13e+06 M⁻¹ s⁻¹.

Consider Human VEGF_(1–165) (ligand), for which, in the assay with VEGF dual dAb (human) [6], the Kd is 0.00717 nM, the koff turned out to be 4.76e-05 s⁻¹ and the kon was 6.63e+06 M⁻¹ s⁻¹. For the same substance, in assay [7], the stoichiometry N was 2.

In the assay with VEGF dual dAb (human) [6], Murine VEGF-A164 (ligand) registered a Kd of 0.0065 nM, a koff of 5.19e-05 s⁻¹ and a kon of 8e+06 M⁻¹ s⁻¹.
